Where two headings read alike, the source gives them in different places.
Tests used:
Assay in all cases: EMSA
RAD52 full-length [1] = target: T1, RAD52 full-length (Homo sapiens, UniProt P43351 1-418)
T1 sequence: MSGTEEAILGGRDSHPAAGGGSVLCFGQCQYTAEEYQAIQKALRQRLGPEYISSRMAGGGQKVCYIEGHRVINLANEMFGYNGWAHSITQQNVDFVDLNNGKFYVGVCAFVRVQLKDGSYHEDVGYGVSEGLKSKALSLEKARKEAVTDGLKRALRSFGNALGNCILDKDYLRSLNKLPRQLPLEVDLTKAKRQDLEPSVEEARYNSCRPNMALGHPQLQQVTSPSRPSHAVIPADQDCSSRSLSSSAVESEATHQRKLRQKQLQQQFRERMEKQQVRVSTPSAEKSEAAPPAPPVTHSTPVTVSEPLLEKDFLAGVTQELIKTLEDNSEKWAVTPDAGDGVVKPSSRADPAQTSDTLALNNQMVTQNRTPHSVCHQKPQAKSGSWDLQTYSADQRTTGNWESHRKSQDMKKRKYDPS

RAD52 full-length [2] = target: T1, RAD52 full-length; remark: listed apart in the source
RAD52 full-length [3] = target: T1, RAD52 full-length; remark: listed apart in the source
RAD52 full-length [4] = target: T1, RAD52 full-length; remark: listed apart in the source

B1: ISE#4 40-mer ssDNA (ssDNA)
DNA: TGCGGATGGCTTAGAGCTTAATTGCTGAATCTGGTGCTGT
- binding result (RAD52 full-length [1]): binds

B2: ISE#3 40-mer ssRNA (ssRNA)
RNA: UGCGGAUGGCUUAGAGCUUAAUUGCUGAAUCUGGUGCUGU
- binding result (RAD52 full-length [2]): binds

B3: ISE#1 40-mer ssDNA (ssDNA)
DNA: ACAGCACCAGATTCAGCAATTAAGCTCTAAGCCATCCGCA
- binding result (RAD52 full-length [3]): binds

B4: CA#1 40-mer ssRNA (ssRNA)
RNA: AAUACCGCAUCAGGAAAUUGUAAGCGUUAAUAUUUUGUUA
- binding result (RAD52 full-length [4]): binds

Source: paper PMC10312132
